The text below walks through data of IntAct's records for PubMed 31515488.

B1: Alpha-ketoglutarate-dependent dioxygenase alkB homolog 4 (Homo sapiens), Q9NXW9 (parent)
chain: MAAAAAETPEVLRECGCKGIRTCLICERQRGSDPPWELPPAKTYRFIYCSDTGWAVGTEESDFEGWAFPFPGVMLIEDFVTREEEAELVRLMDRDPWKLSQSGRRKQDYGPKVNFRKQKLKTEGFCGLPSFSREVVRRMGLYPGLEGFRPVEQCNLDYCPERGSAIDPHLDDAWLWGERLVSLNLLSPTVLSMCREAPGSLLLCSAPSAAPEALVDSVIAPSRSVLCQEVEVAIPLPARSLLVLTGAARHQWKHAIHRRHIEARRVCVTFRELSAEFGPGGRQQELGQELLRIALSFQGRPV
partner: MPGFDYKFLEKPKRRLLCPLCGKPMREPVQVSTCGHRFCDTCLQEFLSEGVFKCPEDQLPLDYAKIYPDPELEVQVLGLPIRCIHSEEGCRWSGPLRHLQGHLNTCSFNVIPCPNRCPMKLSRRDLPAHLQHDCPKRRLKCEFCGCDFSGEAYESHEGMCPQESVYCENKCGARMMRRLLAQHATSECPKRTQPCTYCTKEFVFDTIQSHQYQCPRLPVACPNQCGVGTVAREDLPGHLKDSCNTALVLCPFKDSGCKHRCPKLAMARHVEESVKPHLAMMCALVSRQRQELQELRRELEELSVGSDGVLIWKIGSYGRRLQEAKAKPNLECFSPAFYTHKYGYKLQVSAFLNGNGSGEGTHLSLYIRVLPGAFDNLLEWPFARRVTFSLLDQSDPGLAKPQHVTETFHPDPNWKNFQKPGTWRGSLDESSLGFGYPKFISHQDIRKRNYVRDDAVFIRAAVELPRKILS
B2: NF-kappa-B inhibitor delta (Homo sapiens), Q8NI38 (parent)
chain: MEAGPWRVSAPPSGPPQFPAVVPGPSLEVARAHMLALGPQQLLAQDEEGDTLLHLFAARGLRWAAYAAAEVLQVYRRLDIREHKGKTPLLVAAAANQPLIVEDLLNLGAEPNAADHQGRSVLHVAATYGLPGVLLAVLNSGVQVDLEARDFEGLTPLHTAILALNVAMRPSDLCPRVLSTQARDRLDCVHMLLQMGANHTSQEIKSNKTVLHLAVQAANPTLVQLLLELPRGDLRTFVNMKAHGNTALHMAAALPPGPAQEAIVRHLLAAGADPTLRNLENEQPVHLLRPGPGPEGLRQLLKRSRVAPPGLSS
B3: Protein FAM200C (Homo sapiens), Q8IZ13 (parent)
chain: MSKKRKWDDDYVRYWFTCTTEVDGTQRPQCVLCNSVFSNADLRPSKLSDHFNRQHGGVAGHDLNSLKHMPAPSDQSETLKAFGVASHEDTLLQASYQFAYLCAKEKNPHTVAEKLVKPCALEIAQIVLGPDAQKKLQQVPLSDDVIHSRIDEMSQDILQQVLEDIKASPLKVGIQLAETTDMDDCSQLMAFVRYIKEREIVEEFLFCEPLQLSMKGIDVFNLFRDFFLKHKIALDVCGSVCTDGASSMLGENSEFVAYVKKEIPHIVVTHCLLNPHALVIKTLPTKLRDALFTVVRVINFIKGRAPNHRLFQAFFEEIGIEYSVLLFHTEMRWLSRGQILTHIFEMYEEINQFLHHKSSNLVDGFENKEFKIHLAYLADLFKHLNELSASMQRTGMNTVSAREKLSAFVRKFPFWQKRIEKRNFTNFPFLEEIIVSDNEGIFIAAEITLHLQQLSNFFHGYFSIGDLNEASKWILDPFLFNIDFVDDSYLMKNDLAELRASGQILMEFETMKLEDFWCAQFTAFPNLAKTALEILMPFATTYLCELGFSSLLHFKTKSRSCFNLSDDIRVAISKKVPRFSDIIEQKLQLQQKSL
B4: KAT8 regulatory NSL complex subunit 1 (Homo sapiens), Q7Z3B3 (parent)
chain: MAAMAPALTDAAAEAHHIRFKLAPPSSTLSPGSAENNGNANILIAANGTKRKAIAAEDPSLDFRNNPTKEDLGKLQPLVASYLCSDVTSVPSKESLKLQGVFSKQTVLKSHPLLSQSYELRAELLGRQPVLEFSLENLRTMNTSGQTALPQAPVNGLAKKLTKSSTHSDHDNSTSLNGGKRALTSSALHGGEMGGSESGDLKGGMTNCTLPHRSLDVEHTTLYSNNSTANKSSVNSMEQPALQGSSRLSPGTDSSSNLGGVKLEGKKSPLSSILFSALDSDTRITALLRRQADIESRARRLQKRLQVVQAKQVERHIQHQLGGFLEKTLSKLPNLESLRPRSQLMLTRKAEAALRKAASETTTSEGLSNFLKSNSISEELERFTASGIANLRCSEQAFDSDVTDSSSGGESDIEEEELTRADPEQRHVPLRRRSEWKWAADRAAIVSRWNWLQAHVSDLEYRIRQQTDIYKQIRANKGLIVLGEVPPPEHTTDLFLPLSSEVKTDHGTDKLIESVSQPLENHGAPIIGHISESLSTKSCGALRPVNGVINTLQPVLADHIPGDSSDAEEQLHKKQRLNLVSSSSDGTCVAARTRPVLSCKKRRLVRPNSIVPLSKKVHRNSTIRPGCDVNPSCALCGSGSINTMPPEIHYEAPLLERLSQLDSCVHPVLAFPDDVPTSLHFQSMLKSQWQNKPFDKIKPPKKLSLKHRAPMPGSLPDSARKDRHKLVSSFLTTAKLSHHQTRPDRTHRQHLDDVGAVPMVERVTAPKAERLLNPPPPVHDPNHSKMRLRDHSSERSEVLKHHTDMSSSSYLAATHHPPHSPLVRQLSTSSDSPAPASSSSQVTASTSQQPVRRRRGESSFDINNIVIPMSVAATTRVEKLQYKEILTPSWREVDLQSLKGSPDEENEEIEDLSDAAFAALHAKCEEMERARWLWTTSVPPQRRGSRSYRSSDGRTTPQLGSANPSTPQPASPDVSSSHSLSEYSHGQSPRSPISPELHSAPLTPVARDTPRHLASEDTRCSTPELGLDEQSVQPWERRTFPLAHSPQAECEDQLDAQERAARCTRRTSGSKTGRETEAAPTSPPIVPLKSRHLVAAATAQRPTHR

In one experiment the parent is B1. Particulars: with traf4_human TRAF4, Q9BUZ4.
In the case of R239C, the “effect of a mutation on the interaction” value is reported as “disrupting interaction strength”.

Variants of B2 are the subject of the next experiment. Particulars: with ssxt_human SS18, Q15532.
Chain of ssxt_human SS18, Q15532 (Q15532 whole entry): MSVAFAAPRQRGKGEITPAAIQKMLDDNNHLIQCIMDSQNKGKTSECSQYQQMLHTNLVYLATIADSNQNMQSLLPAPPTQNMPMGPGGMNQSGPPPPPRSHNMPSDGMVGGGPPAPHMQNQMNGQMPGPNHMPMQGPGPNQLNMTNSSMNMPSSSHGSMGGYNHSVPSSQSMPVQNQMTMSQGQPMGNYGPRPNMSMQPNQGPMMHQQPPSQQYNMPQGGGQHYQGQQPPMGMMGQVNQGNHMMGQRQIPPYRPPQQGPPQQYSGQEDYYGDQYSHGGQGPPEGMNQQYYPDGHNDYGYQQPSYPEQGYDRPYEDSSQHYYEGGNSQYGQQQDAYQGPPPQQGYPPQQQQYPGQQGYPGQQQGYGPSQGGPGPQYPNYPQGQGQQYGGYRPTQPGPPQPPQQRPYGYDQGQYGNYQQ
Regarding V29A, the “effect of a mutation on the interaction” value is listed as “with no effect”.

Another experiment covers variants of B3. Particulars: with mt21a_human METTL21A.
For the variant M248K, the “effect of a mutation on the interaction” value was “disrupting interaction strength”.

The next experiment covers variants of B4. Particulars: with cdr2_human CDR2, Q01850.
Chain of cdr2_human CDR2, Q01850 (Q01850 whole entry): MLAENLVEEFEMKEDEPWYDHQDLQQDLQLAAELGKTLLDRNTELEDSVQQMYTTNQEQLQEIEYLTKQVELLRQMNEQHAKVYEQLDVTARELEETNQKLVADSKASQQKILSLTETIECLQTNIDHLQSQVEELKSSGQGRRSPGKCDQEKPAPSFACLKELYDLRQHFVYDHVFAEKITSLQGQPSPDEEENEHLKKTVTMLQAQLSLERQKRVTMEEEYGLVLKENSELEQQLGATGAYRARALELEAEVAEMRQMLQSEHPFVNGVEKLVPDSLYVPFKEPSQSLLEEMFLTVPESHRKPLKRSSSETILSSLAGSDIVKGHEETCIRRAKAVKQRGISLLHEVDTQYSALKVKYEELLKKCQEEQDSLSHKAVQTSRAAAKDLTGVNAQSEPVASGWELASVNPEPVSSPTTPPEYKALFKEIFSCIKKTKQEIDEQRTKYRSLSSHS
In the case of K104T, the “effect of a mutation on the interaction” value is “with no effect”.

Another experiment covers variants of B4. Particulars: with traf2_human TRAF2, Q12933.
Chain of traf2_human TRAF2, Q12933 (Q12933 whole entry): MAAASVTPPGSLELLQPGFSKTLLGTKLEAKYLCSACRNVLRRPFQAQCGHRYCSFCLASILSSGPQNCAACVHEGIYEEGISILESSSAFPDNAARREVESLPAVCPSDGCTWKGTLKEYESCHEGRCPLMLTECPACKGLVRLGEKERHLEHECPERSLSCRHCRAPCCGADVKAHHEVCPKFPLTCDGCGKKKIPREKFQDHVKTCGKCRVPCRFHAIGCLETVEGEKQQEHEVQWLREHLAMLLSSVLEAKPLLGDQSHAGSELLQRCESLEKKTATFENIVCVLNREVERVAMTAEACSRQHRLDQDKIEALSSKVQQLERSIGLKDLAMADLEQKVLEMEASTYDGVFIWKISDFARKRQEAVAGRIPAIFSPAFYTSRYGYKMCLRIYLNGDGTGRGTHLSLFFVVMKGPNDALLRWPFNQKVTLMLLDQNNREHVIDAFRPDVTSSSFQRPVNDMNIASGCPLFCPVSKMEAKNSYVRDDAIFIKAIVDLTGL
In the case of K104T, the “effect of a mutation on the interaction” value is listed as “with no effect”.

The variants in another experiment derive from B4. Particulars: with KRT15, P19012.
Chain of KRT15, P19012 (P19012 whole entry): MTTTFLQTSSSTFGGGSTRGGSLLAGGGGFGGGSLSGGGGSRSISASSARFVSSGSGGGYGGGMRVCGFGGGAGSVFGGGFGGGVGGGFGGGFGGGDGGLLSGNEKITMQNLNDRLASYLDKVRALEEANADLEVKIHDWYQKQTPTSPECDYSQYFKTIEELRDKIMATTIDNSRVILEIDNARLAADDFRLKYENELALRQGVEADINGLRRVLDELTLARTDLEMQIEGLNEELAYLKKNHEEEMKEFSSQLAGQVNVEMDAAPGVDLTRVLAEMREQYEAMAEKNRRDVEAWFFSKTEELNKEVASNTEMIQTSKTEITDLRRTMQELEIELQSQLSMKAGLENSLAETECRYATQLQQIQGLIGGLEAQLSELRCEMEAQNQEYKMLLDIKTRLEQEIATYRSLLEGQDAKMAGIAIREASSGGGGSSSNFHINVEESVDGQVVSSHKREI
Regarding K104T, the “effect of a mutation on the interaction” value is “with no effect”.
